For one substance, reduction in detectable CD38+ pbNK cell counts against the control condition results are on record in US20230357716A1.

This experiment addresses CD38 (UniProt P28907). Put plainly: cell-based or functional assay.

In turn, daratumumab (antibody) showed a reduction in detectable CD38+ pbNK cell counts against the control condition of 21 fold.
